# From patent US20200207857A1
# Key:
# [1] = biological target: Recombinant protein Claudin 18.2; assay: ELISA, recombinant Claudin 18.2 coated at 4.5 ug/mL (Example 67), OD370; Kd table under the graph, no unit in the table, unit from the x axis log[antibody] nM
# [2] = biological target: Recombinant protein Claudin 18.2; assay: binding study 'as in Example 1'; method not named (ELISA on recombinant Claudin 18.2 assumed)
# [3] = biological target: human Claudin 18.1 (CLDN 18.1) expressed on HEK293 cells (human) (UniProt P56856); assay: flow cytometry, 293T-CLDN18.1 cells, FL1-A histogram, gate P1; untransfected 293T: M1 0.1%
# [4] = biological target: Recombinant protein Claudin 18.2; assay: ELISA as in Example 1, recombinant Claudin 18.2 coated on the plate, OD450, linear axis in ng/ml
# [5] = biological target: Recombinant protein Claudin 18.2; assay: ELISA on plate-coated recombinant Claudin 18.2, OD370; Kd table under the graph, no unit in the table, unit from the x axis log[antibody] nM
# [6] = biological target: Recombinant protein Claudin 18.2; assay: ELISA on plate-coated recombinant Claudin 18.2, OD450; Kd table under the graph, no unit in the table, unit from the x axis log[antibody] nM
# [7] = biological target: Recombinant protein Claudin 18.2; assay: as above; remark: listed apart in the source
# [8] = biological target: Recombinant protein Claudin 18.2; assay: ELISA-based assay on Claudin 18.2, y axis RLU; Kd table under the graph, no unit in the table, unit from the x axis log[antibody] nM
# [9] = biological target: Recombinant protein Claudin 18.2; assay: ELISA, recombinant Claudin 18.2 coated at 4.5 ug/mL (Example 67), OD450; Kd box under the graph without column head (the only rising curve is h5C9o_CLN18.2), no unit in the box, unit from the x axis log[antibody] nM
# [10] = biological target: Recombinant protein Claudin 18.2; assay: ELISA-based assay on Claudin 18.2, y axis RLU; Kd table under the graph, no unit in the table, unit from the x axis log[antibody] nM; remark: listed apart in the source
# [11] = biological target: Recombinant protein Claudin 18.2; assay: as above; remark: listed apart in the source
# [12] = biological target: human Claudin 18.1 (CLDN 18.1) expressed on HEK293 cells (human) (UniProt P56856); assay: flow cytometry, 293T-CLDN18.1 cells, FL1-A histogram, gate P1; untransfected 293T: M1 0.0%
# Sequence of human Claudin 18.1 (CLDN 18.1) expressed on HEK293 cells (human) (P56856 whole entry): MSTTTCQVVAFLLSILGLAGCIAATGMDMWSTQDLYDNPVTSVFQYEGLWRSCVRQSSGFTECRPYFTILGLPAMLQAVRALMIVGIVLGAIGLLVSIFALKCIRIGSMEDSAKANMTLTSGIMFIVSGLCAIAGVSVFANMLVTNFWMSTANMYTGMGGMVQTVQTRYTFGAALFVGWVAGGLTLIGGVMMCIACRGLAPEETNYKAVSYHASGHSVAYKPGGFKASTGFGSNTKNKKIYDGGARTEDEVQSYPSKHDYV
# Sequence of Recombinant protein Claudin 18.2 (chain, as listed by the source limits assumed, form in doubt): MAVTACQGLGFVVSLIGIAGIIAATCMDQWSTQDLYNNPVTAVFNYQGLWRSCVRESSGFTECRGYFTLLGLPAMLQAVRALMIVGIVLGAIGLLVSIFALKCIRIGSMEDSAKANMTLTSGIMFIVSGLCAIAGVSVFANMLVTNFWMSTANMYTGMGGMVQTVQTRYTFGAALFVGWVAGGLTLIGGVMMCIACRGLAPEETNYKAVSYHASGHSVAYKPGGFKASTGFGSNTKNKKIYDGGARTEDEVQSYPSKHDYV
binder,measurement,setting,value
"chimeric anti-CLDN 18.2 antibody ch15G11 (antibody, V domains shown) VH: EVQLQESGGGLVQPGGSRKLSCAASGFSFSSFGMHWVRQAPEKGLEWVAFISSGSSPIYYADTVKGRFTVSRDNPKNTLFLQMTSLRSEDTAMYFCARNYYGNAMDYWGQGSSVTVSS VL: DIMMTQSPLSLTVTAGEKVTMNCKSSQSLLNGGNQKNYLAWYQQKPGQPPKLLIYWASTRESGVPARFTGSGSGTDFTLTINTVQAEDLAVYYCQNDYFYPLTFGTGTKLELKR",Kd,[1],0.0939 nM
"Anti-CLDN 18.2-7H1 (antibody, V domains shown) VL: DIVLTQSPAILSVSPGEKVTMTCRASSSVSYMHWYQQKPGSSPKPWIYGTSNLASGVPARFSGSGSGTSYSLTISRVEAEDAATYYCQQWSSNPLTFGTGTKLELK V domain: KVQLQESGGGSVQPGGSLKLSCAASGFTFSSYSMSWVRQTPEKRLEWVAYISNLGGATYYPDTVKGRFTVSRDNARNSLYLQMTSLKSDDTAMYYCTRHNYGYDGFADWGQGTLATVSA",Kd,[2],0.267 nM
"Anti-CLDN 18.2-15G11 (antibody, V domains shown) VH: VQLQESGGGLVQPGGSRKLSCAASGFSFSSFGMHWVRQAPEKGLEWVAFISSGSSPIYYADTVKGRFTVSRDNPKNTLFLQMTSLRSEDTAMYFCARNYYGNAMDYWGQGSSVTVSS VL: DIMMTQSPLSLTVTAGEKVTMNCKSSQSLLNGGNQKNYLAWYQQKPGQPPKLLIYWASTRESGVPARFTGSGSGTDFTLTINTVQAEDLAVYYCQNDYFYPLTFGTGTKLELK",% of cells in gate M1,[3],0.7%
same,EC50 (read off the curve),[4],0.06 µg/mL
same,Kd,[5],0.0662 nM
"Anti-CLDN 18.2-5C9o (humanized antibody h5C9o) (antibody, V domains shown) VH: EVQLVESGGGLVQPGGSLRLSCAVSGYTFSMNWVRQAPGKGLEWVAWINMYTGEPTYADDFKGRFTISRDDSKNTLYLQMNSLRAEDTAVYYCARLYNGNSLDYWGQGTLVTVSS VL: DIQMTQSPSSLSASVGDRVTITCKSSQSLLNSGNQKSYLTWYQQKPGKAPKLLIYWASTLESGVPSRFSGSGSGTDYTLTISSLQPEDFATYYCQNAYSFPFTFGQGTKVEIK",Kd,[6],0.128 nM
same,Kd,[7],0.0892 nM
same,Kd,[8],0.14 nM
same,Kd,[9],0.0873 nM
"humanized anti-Claudin 18.2 antibody h5C9oao (antibody, human IgG1, kappa, V domains shown) VH: EVQLVESGGGLVQPGGSLRLSCAVSGYTFSMNWVRQAPGKGLEWVAWINMYTGEPTYADDFKGRFTISRDDSKNTLYLQMNSLRAEDTAVYYCARLARGNSMDYWGQGTLVTVSS VL: DIQMTQSPSSLSASVGDRVTITCKSSQSLLNSGNQKSYLTWYQQKPGKAPKLLIYWASTLESGVPSRFSGSGSGTDYTLTISSLQPEDFATYYCQNAYFFPFTFGQGTKVEIKR",Kd,[6],0.134 nM
same,Kd,[8],0.102 nM
"Anti-CLDN 18.2-5C9ob (humanized antibody h5C9ob) (antibody, human IgG1, V domains shown) VH: EVQLVESGGGLVQPGGSLRLSCAVSGYTFSMNWVRQAPGKGLEWVAWINMYTGEPTYADDFKGRFTISRDDSKNTLYLQMNSLRAEDTAVYYCARLYNGNSLDYWGQGTLVTVSS VL: DIQMTQSPSSLSASVGDRVTITCKSSQSLLNSGNQKSYLTWYQQKPGKAPKLLIYWASTLESGVPSRFSGSGSGTDYTLTISSLQPEDFATYYCQNAYFFPFTFGQGTKVEIK",Kd,[6],0.129 nM
same,Kd,[7],0.0863 nM
same,Kd,[8],0.13 nM
same,Kd,[10],0.16 nM
same,Kd,[11],0.213 nM
"Anti-CLDN 18.2-5C9oae (humanized antibody h5C9oae) (antibody, human IgG1, V domains shown) VH: EVQLVESGGGLVQPGGSLRLSCAVSGYTFSMNWVRQAPGKGLEWVAWINMYTGEPTYADDFKGRFTISRDDSKNTLYLQMNSLRAEDTAVYYCARLYRGNSLDYWGQGTLVTVSS VL: DIQMTQSPSSLSASVGDRVTITCKSSQSLLNSGNQKSYLTWYQQKPGKAPKLLIYWASTLESGVPSRFSGSGSGTDYTLTISSLQPEDFATYYCQNAYFFPFTFGQGTKVEIK",Kd,[6],0.14 nM
same,Kd,[8],0.109 nM
same,Kd,[11],0.183 nM
"chimeric anti-CLDN 18.2 antibody ch5C9 (antibody, human IgG1, kappa, V domains shown) VH: EVKLQESGPELKKPGETVKISCKASGYTFTNYGMNWVKQAPGKGLKWMGWINMYTGEPTYADDFKGRFAFSLETSASTAYLQINNLKNEDTATYFCSRLYNGNSLDYWGQGTSLTVSS VL: DILLTQSPLSLTVTAGEKVTMSCKSSQSLLNSGNQKSYLTWYQQKPGQPPKLLLYWASTRESGVPARFTGSGSGTDFSLTISSVQTEDLAVYYCQNAYSFPFTFGSGTKLEINR",Kd,[1],0.0988 nM
"chimeric anti-CLDN 18.2 antibody ch9A1 (antibody, human IgG1, kappa, V domains shown) VH: EVQLQQSGAELVRPGTSVKVSCKASRYAFTNYLIEWVKQRPGQGLEWIGMINPGSGGTHYNEKFKVKATLTADKSSSTAYMQLSSLTSDDSAVYFCARGGFGNSFAYWGQGTLVTVSA VL: DILLTQSPLSLTVTAGEKVTMSCKSSQSLLNGGNLKNYLTWYQQKPGQPPKLLTYWASTRESGVPVRFTGSGSGTDFTLTISSVQAEDLAVYYCQNGYFYPYTFGGGTKLEIKR",Kd,[1],0.101 nM
"Anti-CLDN 18.2-9A1 (antibody, V domains shown) VH: VQLQQSGAELVRPGTSVKVSCKASRYAFTNYLIEWVKQRPGQGLEWIGMINPGSGGTHYNEKFKVKATLTADKSSSTAYMQLSSLTSDDSAVYFCARGGFGNSFAYWGQGTLVTVSA VL: DILLTQSPLSLTVTAGEKVTMSCKSSQSLLNGGNLKNYLTWYQQKPGQPPKLLTYWASTRESGVPVRFTGSGSGTDFTLTISSVQAEDLAVYYCQNGYFYPYTFGGGTKLEIK",% of cells in gate M1,[12],1.3%
same,EC50 (read off the curve),[4],0.06 µg/mL
same,Kd,[5],0.0536 nM
"Anti-CLDN 18.2-5H1 (antibody, V domains shown) VH: VQLQESGAELVRPGTSVKVSCKASGYAFTNYLIEWIKQRPGQGLEWIGMINPGSGGTKYNEKFKGKASLTADKTSSTAYMQLSSLTSDDSAVYFCARGGFGNSFAYWGQGTLVTVSA VL: DIMMTQSPLSLTVTAGEKVTMTCKSSQSLLNSGNLKNYLTWYQQKPGQPPKLLTYWASTRESGVPTRFTGSGSATDFTLTISSVQAEDLAVYYCQNAYFYPYTFGGGTKLEIK",Kd,[2],0.32 nM
"Anti-CLDN 18.2-5C9 (antibody, V domains shown) VH: VKLQESGPELKKPGETVKISCKASGYTFTNYGMNWVKQAPGKGLKWMGWINMYTGEPTYADDFKGRFAFSLETSASTAYLQINNLKNEDTATYFCSRLYNGNSLDYWGQGTSLTVSS VL: DILLTQSPLSLTVTAGEKVTMSCKSSQSLLNSGNQKSYLTWYQQKPGQPPKLLLYWASTRESGVPARFTGSGSGTDFSLTISSVQTEDLAVYYCQNAYSFPFTFGSGTKLEIN",% of cells in gate M1,[3],0.7%
same,EC50 (read off the curve),[4],0.05 µg/mL
same,Kd,[5],0.0699 nM
